Source: doi:10.1101/2025.06.28.662095, “Mechanistic insights into the allosteric regulation of cell wall hydrolase RipA in Mycobacterium tuberculosis” (bioRxiv, 2025)

Target: T1, MtSteBΔTM (M. tuberculosis SteB devoid of its TM domain, residues 38-314) (Mycobacterium tuberculosis, UniProt P9WJ83 38-314)
T1 construct: Homodimer in both crystal structures; also called Rv1698; MctB; not shown: 6xHis-SUMO, N-terminal, cleaved
Assay: BLI; biotinylated MtRipACC immobilised on streptavidin biosensors; 25°C; 25 mM HEPES pH 7.5, 150 mM NaCl, 5% glycerol, BSA 1 mg/mL, 0.05% Tween 20; steady-state signal versus concentration, one-site binding model; apparent Kd
Conditions: both partners purified

B1: MtRipACC (coiled-coil domain of M. tuberculosis RipA, residues 40-240) (domain or fragment)
chain: DPQTDTIAALIADVAKANQRLQDLSDEVQAEQESVNKAMVDVETARDNAAAAEDDLEVSQRAVKDANAAIAAAQHRFDTFAAATYMNGPSVSYLSASSPDEIIATVTAAKTLSASSQAVMANLQRARTERVNTESAARLAKQKADKAAADAKASQDAAVAALTETRRKFDEQREEVQRLAAERDAAQARLQAARLVAWSSE
modifications: biotinylated with EZ-Link NHS-PEG4-Biotin (20 molar excess) for the BLI assays
notes: also called RipA coiled-coil (CC) domain; MtRipA CC domain; not shown: 6xHis-SUMO, N-terminal, cleaved
B1 was tested. Which Kd did it give?
Its Kd is 42.6 ± 4.4 µM.
